Source: paper PMC11761707 (Proceedings of the National Academy of Sciences of the …, 2025)

Target: the molecule itself
Assay: crystal structure

B1: Nmar_1354, multicopper oxidase (MCO4 lineage) from Nitrosopumilus maritimus (enzyme)
chain: DSSDTFPKFKNPNPQTLSYTLIAQDAEIEVSPGVRAKVWTYNGTVPAPTLRFSEGDDVTVKFVNDTPYAHTIHFHGTHDSANDGVFPMIMPGEEYTYHFVAEEAGLFMYHCHAFPTSEHVRMGMFGTMIIDPAIRPMDPAREYFFTLSEFDPNNALEHFTEFYPINGYAGQYMDNPIRVVSGELTRFYVVGIGGVLQSPFHVHSTIMKVYPSGILWNEPYYAQTHLIGNGDTAIIEATWTQPGMYLFHVHGIQEERGSMAMIEVLEDASSLSDVQRPSNNKGSYSMVEWQEDLIRTLEQPQLISYENLGESAAISSEKVSADKVSIVKDSWNPEITESYDPIAIQVDSGTTVTWTNDDSVVHTVTDNENSFDSGFIQAGNTWSYSFDNPGEFDYICTLHPWMKGTISVN
**Q.** With B1 as the protein, how does the “stoichiometry N” value read?
**A.** 3
